Assay [1] deals with T1, soluble hG-CSFR: amino acids 25-335 of Homo sapiens G-CSFR with mutations C78A, C163S and C228S and a … (Homo sapiens, UniProt Q99062 25-335).
T1 chain: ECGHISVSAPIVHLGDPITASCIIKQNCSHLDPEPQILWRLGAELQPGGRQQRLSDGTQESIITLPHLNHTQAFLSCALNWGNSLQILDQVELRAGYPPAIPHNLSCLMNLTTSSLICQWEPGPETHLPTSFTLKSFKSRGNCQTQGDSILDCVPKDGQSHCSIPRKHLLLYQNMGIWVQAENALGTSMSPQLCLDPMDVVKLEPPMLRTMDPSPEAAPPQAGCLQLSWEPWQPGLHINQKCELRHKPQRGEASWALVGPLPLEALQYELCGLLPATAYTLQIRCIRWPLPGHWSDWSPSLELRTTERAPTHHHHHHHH
Nature of the assay: SPR (Biacore), mAb captured by anti-human IgG, soluble hG-CSFR injected. As for the experimental part: Soluble hG-CSFR was injected for 5 minutes and dissociation was monitored for 30 minutes. Responses from a reference flow cell (in which mAb was not captured, but otherwise treated identically), were subtracted. The responses from a blank injection were then subtracted from the resultant sensorgrams.
The final corrected responses were fitted using non-linear regression to a model describing 1:1 kinetics, including a term for mass transport limitation. The Rmax value was fitted locally, to account for slight deviations in the level of mAb captured. Association rate (ka), dissociation rate (kd) and equilibrium dissociation constant (KD) were determined.
For orientation: In SPR one partner is held on a chip, and binding of the other changes the refractive index at the surface.

The target in assay [2] is T2, human G-CSFR expressed on cells (Homo sapiens, UniProt Q99062 25-836).
T2 sequence: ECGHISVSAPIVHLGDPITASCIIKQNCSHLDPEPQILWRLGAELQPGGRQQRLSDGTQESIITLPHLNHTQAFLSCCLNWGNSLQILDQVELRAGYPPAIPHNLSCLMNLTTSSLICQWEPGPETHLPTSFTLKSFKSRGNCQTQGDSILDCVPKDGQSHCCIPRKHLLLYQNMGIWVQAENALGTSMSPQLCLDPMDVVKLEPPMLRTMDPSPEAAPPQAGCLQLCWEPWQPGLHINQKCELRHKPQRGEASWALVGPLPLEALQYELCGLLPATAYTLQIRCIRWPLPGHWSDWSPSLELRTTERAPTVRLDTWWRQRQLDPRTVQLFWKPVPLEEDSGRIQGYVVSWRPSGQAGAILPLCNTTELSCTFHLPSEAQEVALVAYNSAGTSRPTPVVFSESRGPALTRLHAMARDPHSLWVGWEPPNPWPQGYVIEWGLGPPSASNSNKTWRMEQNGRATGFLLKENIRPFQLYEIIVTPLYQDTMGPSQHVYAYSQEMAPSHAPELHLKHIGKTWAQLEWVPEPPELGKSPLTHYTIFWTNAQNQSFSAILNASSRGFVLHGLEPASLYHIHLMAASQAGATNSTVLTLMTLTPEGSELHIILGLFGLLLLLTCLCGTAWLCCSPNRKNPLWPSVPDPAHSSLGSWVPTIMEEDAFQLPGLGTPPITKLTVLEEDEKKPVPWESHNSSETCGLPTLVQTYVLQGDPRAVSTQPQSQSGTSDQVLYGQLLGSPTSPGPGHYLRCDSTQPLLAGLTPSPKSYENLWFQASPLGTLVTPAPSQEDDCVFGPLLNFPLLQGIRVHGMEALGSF
The experiment in a line: cell-based or functional assay.

B1: C1.2G-77 (antibody, human IgG4, V domains shown)
VH: EVQLLESGGGLVQPGGSLRLSCAASGFTFSLYWMGWVRQAPGKGLEWVSSISSSGGVTPYADSVKGRFTISRDNSKNTLYLQMNSLRAEDTAVYYCAKLGELGWFDPWGQGTLVTVSS
VL: DIQMTQSPSSLSASVGDRVTITCRASQGISSYLNWYQQKPGKAPKLLIYYASNLQNGVPSRFSGSGSGTDFTLTISSLQPEDFATYYCEQGWNYPLTFGGGTKVEIK
notes: HCDR3 wt (VH of C1.2G); also called antibody 77
For B1, in assay [1], the affinity, expressed as Kd, was 0.107 nM. In assay [2], the “IC50 (nM), inhibition of G-CSF-mediated proliferation of BaF3 cells” value (“IC50 (nM), inhibition” below) amounted to 0.23 nM.

B2: C1.2G-1002 (antibody, human IgG4, V domains shown)
VH: EVQLLESGGGLVQPGGSLRLSCAASGFTFSLYWMGWVRQAPGKGLEWVSSISSSGGVTPYADSVKGRFTISRDNSKNTLYLQMNSLRAEDTAVYYCAKLGELGMYMNWGQGTLVTVSS
VL: DIQMTQSPSSLSASVGDRVTITCRASQGISSYLNWYQQKPGKAPKLLIYYASNLQNGVPSRFSGSGSGTDFTLTISSLQPEDFATYYCQQSWTYGQTFGGGTKVEIK
notes: also called antibody 1002
In assay [1], B2 gave a Kd of 0.167 nM. Besides, the “IC50 (nM), inhibition” value in assay [2] was 0.18 nM.

B3: C1.2G-1003 (antibody, human IgG4, V domains shown)
VH: EVQLLESGGGLVQPGGSLRLSCAASGFTFSLYWMGWVRQAPGKGLEWVSSISSSGGVTPYADSVKGRFTISRDNSKNTLYLQMNSLRAEDTAVYYCAKLGELGSGSTWGQGTLVTVSS
VL: DIQMTQSPSSLSASVGDRVTITCRASQGISSYLNWYQQKPGKAPKLLIYYASNLQNGVPSRFSGSGSGTDFTLTISSLQPEDFATYYCQQSWHYPLTFGGGTKVEIK
notes: also called antibody 1003
With B3, the Kd in assay [1] was found to be 0.0682 nM. Also, the “IC50 (nM), inhibition” value in assay [2] was found to be 0.26 nM.

B4: C1.2G-989 (antibody, human IgG4, V domains shown)
VH: EVQLLESGGGLVQPGGSLRLSCAASGFTFSLYWMGWVRQAPGKGLEWVSSISSSGGVTPYADSVKGRFTISRDNSKNTLYLQMNSLRAEDTAVYYCAKLGELGQYMFWGQGTLVTVSS
VL: DIQMTQSPSSLSASVGDRVTITCRASQGISSYLNWYQQKPGKAPKLLIYYASNLQNGVPSRFSGSGSGTDFTLTISSLQPEDFATYYCQQSFYYPFYFGGGTKVEIK
notes: also called antibody 989
Consider B4, for which the Kd in assay [1] is 0.144 nM. The “IC50 (nM), inhibition” value in assay [2] came to 0.34 nM.

B5: C1.2G-986 (antibody, human IgG4, V domains shown)
VH: EVQLLESGGGLVQPGGSLRLSCAASGFTFSLYWMGWVRQAPGKGLEWVSSISSSGGVTPYADSVKGRFTISRDNSKNTLYLQMNSLRAEDTAVYYCAKLGELGFFQEWGQGTLVTVSS
VL: DIQMTQSPSSLSASVGDRVTITCRASQGISSYLNWYQQKPGKAPKLLIYYASNLQNGVPSRFSGSGSGTDFTLTISSLQPEDFATYYCQQSYAYPQQFGGGTKVEIK
notes: also called antibody 986
In assay [1], B5 showed a Kd of 0.0911 nM. Moreover, the “IC50 (nM), inhibition” value in assay [2] was 0.28 nM.

B6: C1.2G-54 (antibody, human IgG4, V domains shown)
VH: EVQLLESGGGLVQPGGSLRLSCAASGFTFSLYWMGWVRQAPGKGLEWVSSISSSGGVTPYADSVKGRFTISRDNSKNTLYLQMNSLRAEDTAVYYCAKLGELGMFLEWGQGTLVTVSS
VL: DIQMTQSPSSLSASVGDRVTITCRASQGISSYLNWYQQKPGKAPKLLIYYASNLQNGVPSRFSGSGSGTDFTLTISSLQPEDFATYYCQQSMWMPMGFGGGTKVEIK
notes: also called antibody 54
Turning to B6, in assay [1], the equilibrium dissociation constant (Kd) worked out at 0.11 nM. Besides, the “IC50 (nM), inhibition” value in assay [2] amounted to 0.5 nM.

B7: C1.2G-994 (antibody, human IgG4, V domains shown)
VH: EVQLLESGGGLVQPGGSLRLSCAASGFTFSLYWMGWVRQAPGKGLEWVSSISSSGGVTPYADSVKGRFTISRDNSKNTLYLQMNSLRAEDTAVYYCAKLGELGQFMDWGQGTLVTVSS
VL: DIQMTQSPSSLSASVGDRVTITCRASQGISSYLNWYQQKPGKAPKLLIYYASNLQNGVPSRFSGSGSGTDFTLTISSLQPEDFATYYCQQSLEYPQMFGGGTKVEIK
notes: also called antibody 994
In assay [1], B7 displayed a Kd of 0.17 nM. For the same molecule, the “IC50 (nM), inhibition” value in assay [2] was 0.49 nM.

B8: C1.2G-987 (antibody, human IgG4, V domains shown)
VH: EVQLLESGGGLVQPGGSLRLSCAASGFTFSLYWMGWVRQAPGKGLEWVSSISSSGGVTPYADSVKGRFTISRDNSKNTLYLQMNSLRAEDTAVYYCAKLGELGQSSAWGQGTLVTVSS
VL: DIQMTQSPSSLSASVGDRVTITCRASQGISSYLNWYQQKPGKAPKLLIYYASNLQNGVPSRFSGSGSGTDFTLTISSLQPEDFATYYCQQSIQYPQMFGGGTKVEIK
notes: also called antibody 987
Turning to B8, the affinity in assay [1], expressed as Kd, was 0.0446 nM. Besides, the “IC50 (nM), inhibition” value in assay [2] is 0.88 nM.

B9: C1.2G-967 (antibody, human IgG4, V domains shown)
VH: EVQLLESGGGLVQPGGSLRLSCAASGFTFSLYWMGWVRQAPGKGLEWVSSISSSGGVTPYADSVKGRFTISRDNSKNTLYLQMNSLRAEDTAVYYCAKLGELGMYDLWGQGTLVTVSS
VL: DIQMTQSPSSLSASVGDRVTITCRASQGISSYLNWYQQKPGKAPKLLIYYASNLQNGVPSRFSGSGSGTDFTLTISSLQPEDFATYYCQQSWAYGLSFGGGTKVEIK
notes: also called antibody 967
Regarding B9, in assay [1], the dissociation constant Kd stood at 0.134 nM. In addition, the “IC50 (nM), inhibition” value in assay [2] worked out at 0.29 nM.

B10: C1.2G-969 (antibody, human IgG4, V domains shown)
VH: EVQLLESGGGLVQPGGSLRLSCAASGFTFSLYWMGWVRQAPGKGLEWVSSISSSGGVTPYADSVKGRFTISRDNSKNTLYLQMNSLRAEDTAVYYCAKLGELGQYQFWGQGTLVTVSS
VL: DIQMTQSPSSLSASVGDRVTITCRASQGISSYLNWYQQKPGKAPKLLIYYASNLQNGVPSRFSGSGSGTDFTLTISSLQPEDFATYYCQQSFQYAQHFGGGTKVEIK
notes: also called antibody 969
Regarding B10, in assay [1], the affinity, expressed as Kd, was 0.181 nM. Also, in assay [2], the “IC50 (nM), inhibition” value came to 0.41 nM.

B11: C1.2G-83 (antibody, human IgG4, V domains shown)
VH: EVQLLESGGGLVQPGGSLRLSCAASGFTFSLYWMGWVRQAPGKGLEWVSSISSSGGVTPYADSVKGRFTISRDNSKNTLYLQMNSLRAEDTAVYYCAKLGELGWFDPWGQGTLVTVSS
VL: DIQMTQSPSSLSASVGDRVTITCRASQGISSYLNWYQQKPGKAPKLLIYYASNLQNGVPSRFSGSGSGTDFTLTISSLQPEDFATYYCQQSWMYALFFGGGTKVEIK
notes: HCDR3 wt (VH of C1.2G); also called antibody 83
On to B11, for which the affinity in assay [1], expressed as Kd, was 0.066 nM. The “IC50 (nM), inhibition” value in assay [2] came to 0.21 nM.

B12: C1.2G-95 (antibody, human IgG4, V domains shown)
VH: EVQLLESGGGLVQPGGSLRLSCAASGFTFSLYWMGWVRQAPGKGLEWVSSISSSGGVTPYADSVKGRFTISRDNSKNTLYLQMNSLRAEDTAVYYCAKLGELGWFDPWGQGTLVTVSS
VL: DIQMTQSPSSLSASVGDRVTITCRASQGISSYLNWYQQKPGKAPKLLIYYASNLQNGVPSRFSGSGSGTDFTLTISSLQPEDFATYYCQQSWEYPLVFGGGTKVEIK
notes: HCDR3 wt (VH of C1.2G); also called antibody 95
B12 had a Kd in assay [1] of 0.0578 nM. Also, in assay [2], the “IC50 (nM), inhibition” value came to 0.26 nM.

B13: C1.2G-97 (antibody, human IgG4, V domains shown)
VH: EVQLLESGGGLVQPGGSLRLSCAASGFTFSLYWMGWVRQAPGKGLEWVSSISSSGGVTPYADSVKGRFTISRDNSKNTLYLQMNSLRAEDTAVYYCAKLGELGWFDPWGQGTLVTVSS
VL: DIQMTQSPSSLSASVGDRVTITCRASQGISSYLNWYQQKPGKAPKLLIYYASNLQNGVPSRFSGSGSGTDFTLTISSLQPEDFATYYCQQSFMYPLYFGGGTKVEIK
notes: HCDR3 wt (VH of C1.2G); also called antibody 97
Regarding B13, the Kd in assay [1] stood at 0.0906 nM. Further, in assay [2], the “IC50 (nM), inhibition” value came out at 0.21 nM.

B14: C1.2G-79 (antibody, human IgG4, V domains shown)
VH: EVQLLESGGGLVQPGGSLRLSCAASGFTFSLYWMGWVRQAPGKGLEWVSSISSSGGVTPYADSVKGRFTISRDNSKNTLYLQMNSLRAEDTAVYYCAKLGELGWFDPWGQGTLVTVSS
VL: DIQMTQSPSSLSASVGDRVTITCRASQGISSYLNWYQQKPGKAPKLLIYYASNLQNGVPSRFSGSGSGTDFTLTISSLQPEDFATYYCQVSWEYPLTFGGGTKVEIK
notes: HCDR3 wt (VH of C1.2G); also called antibody 79
Regarding B14, in assay [1], the Kd was found to be 0.0613 nM. Moreover, the “IC50 (nM), inhibition” value in assay [2] turned out to be 0.31 nM.

B15: C1.2G-802 (antibody, human IgG4, V domains shown)
VH: EVQLLESGGGLVQPGGSLRLSCAASGFTFSLYWMGWVRQAPGKGLEWVSSISSSGGVTPYADSVKGRFTISRDNSKNTLYLQMNSLRAEDTAVYYCAKLGELGWFDPWGQGTLVTVSS
VL: DIQMTQSPSSLSASVGDRVTITCRASQGISSYLNWYQQKPGKAPKLLIYYASNLQNGVPSRFSGSGSGTDFTLTISSLQPEDFATYYCHFSMQYPLTFGGGTKVEIK
notes: HCDR3 wt (VH of C1.2G); also called antibody 802
For the molecule B15, binding in assay [1] was put at a Kd of 0.111 nM. Besides, in assay [2], the “IC50 (nM), inhibition” value stood at 0.26 nM.

For orientation: Kd means the equilibrium constant for the complex coming apart. Read a low Kd as tighter binding.

(Values after US20160031998A1 (CSL, published 2016).)
